Among the data in patent US20220306705A1 are glucan-dependent protease activity of the coexpressed product: blank difference in absorbance (405 nm / 492 nm) with vs without LNT; grade A >0.1, B <=0.1 and >0.01, C <=0.01 and >0, D =0 (absorbance difference) and glucan-dependent protease activity of the coexpressed product: blank difference in absorbance (405 nm / 492 nm) with vs without LNT; grade D = blank difference equal to 0 (legend given for Table 13) (absorbance difference) values, retold here.

Holding throughout (test): cell-based or functional assay
The target in assay [1] is T1, Factor G β-subunit β2 (Limulus polyphemus).
T1 sequence: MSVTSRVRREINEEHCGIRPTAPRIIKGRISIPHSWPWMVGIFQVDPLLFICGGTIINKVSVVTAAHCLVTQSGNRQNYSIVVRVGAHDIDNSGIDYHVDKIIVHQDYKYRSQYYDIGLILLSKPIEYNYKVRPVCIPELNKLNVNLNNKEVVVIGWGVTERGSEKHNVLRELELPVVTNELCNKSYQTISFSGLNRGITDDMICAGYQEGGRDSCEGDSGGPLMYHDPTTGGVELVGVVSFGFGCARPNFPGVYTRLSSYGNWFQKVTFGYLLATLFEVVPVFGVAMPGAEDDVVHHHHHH

In assay [2] the target is T2, Factor G β-subunit βi2 (Limulus polyphemus).
T2 sequence: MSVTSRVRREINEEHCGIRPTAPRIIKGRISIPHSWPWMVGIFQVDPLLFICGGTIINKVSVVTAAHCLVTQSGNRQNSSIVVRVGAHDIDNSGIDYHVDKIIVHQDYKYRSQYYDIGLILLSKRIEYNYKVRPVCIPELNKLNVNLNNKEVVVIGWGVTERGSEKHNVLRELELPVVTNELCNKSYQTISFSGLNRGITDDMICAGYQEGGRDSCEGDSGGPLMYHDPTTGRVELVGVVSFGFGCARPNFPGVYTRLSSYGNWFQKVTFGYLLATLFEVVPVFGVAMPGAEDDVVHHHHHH

Assay [3] deals with T3, Factor G β-subunit β5 (Limulus polyphemus).
T3 sequence: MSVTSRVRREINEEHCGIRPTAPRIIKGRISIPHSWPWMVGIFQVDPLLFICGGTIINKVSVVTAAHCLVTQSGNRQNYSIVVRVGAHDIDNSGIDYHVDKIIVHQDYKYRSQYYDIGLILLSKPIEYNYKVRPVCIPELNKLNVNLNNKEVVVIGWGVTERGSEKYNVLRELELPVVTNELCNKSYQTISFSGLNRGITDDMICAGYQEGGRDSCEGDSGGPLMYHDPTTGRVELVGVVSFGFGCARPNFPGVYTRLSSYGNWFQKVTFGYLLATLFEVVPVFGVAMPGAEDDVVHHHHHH

In assay [4] the target is T4, Factor G β-subunit βC1 (Limulus polyphemus).
T4 sequence: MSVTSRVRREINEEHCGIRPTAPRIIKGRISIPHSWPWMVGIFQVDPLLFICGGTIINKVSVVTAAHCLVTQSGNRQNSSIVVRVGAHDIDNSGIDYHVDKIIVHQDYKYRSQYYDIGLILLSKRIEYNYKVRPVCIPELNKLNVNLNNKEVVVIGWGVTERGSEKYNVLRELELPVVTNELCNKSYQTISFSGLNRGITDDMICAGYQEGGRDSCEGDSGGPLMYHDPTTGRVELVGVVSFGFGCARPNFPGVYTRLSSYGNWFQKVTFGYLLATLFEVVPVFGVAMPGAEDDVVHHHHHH

Assay [5] has as its target T5, Factor G β-subunit βC2 (Limulus polyphemus).
T5 sequence: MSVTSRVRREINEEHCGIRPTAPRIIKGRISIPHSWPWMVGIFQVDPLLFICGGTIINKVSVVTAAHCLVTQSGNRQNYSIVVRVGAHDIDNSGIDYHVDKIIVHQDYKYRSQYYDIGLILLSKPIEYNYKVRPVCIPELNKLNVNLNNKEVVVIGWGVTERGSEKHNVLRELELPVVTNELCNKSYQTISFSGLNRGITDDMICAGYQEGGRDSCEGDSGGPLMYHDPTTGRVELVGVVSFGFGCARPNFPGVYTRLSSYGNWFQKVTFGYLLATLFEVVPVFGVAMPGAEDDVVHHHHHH

Assay [6] deals with T6, Factor G β-subunit βi3 (Limulus polyphemus).
T6 sequence: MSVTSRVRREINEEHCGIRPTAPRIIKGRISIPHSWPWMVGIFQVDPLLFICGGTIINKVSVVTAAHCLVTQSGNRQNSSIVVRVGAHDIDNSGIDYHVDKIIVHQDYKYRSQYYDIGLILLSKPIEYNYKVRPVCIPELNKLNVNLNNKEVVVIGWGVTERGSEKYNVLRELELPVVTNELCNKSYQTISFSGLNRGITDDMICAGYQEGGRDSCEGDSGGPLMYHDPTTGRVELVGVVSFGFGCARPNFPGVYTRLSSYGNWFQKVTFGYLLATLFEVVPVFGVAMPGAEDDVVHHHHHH

In assay [7] the target is T7, Tachypleus Factor G β-subunit (Tachypleus (paragraph 383 prints 'Tachypleus polyphemus'; paragraph 8 prints Tachypleus tridentatus)) (UniProt Q27083).
T7 sequence (looked up): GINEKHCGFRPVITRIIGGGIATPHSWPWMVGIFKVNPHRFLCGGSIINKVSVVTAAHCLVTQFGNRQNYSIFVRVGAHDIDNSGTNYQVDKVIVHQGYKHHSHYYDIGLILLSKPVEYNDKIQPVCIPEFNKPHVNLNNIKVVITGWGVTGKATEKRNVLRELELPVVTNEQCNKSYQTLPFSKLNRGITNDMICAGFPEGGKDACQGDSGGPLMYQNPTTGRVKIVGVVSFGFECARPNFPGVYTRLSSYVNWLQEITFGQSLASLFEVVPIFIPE

B1: Factor G α-subunit (AB547712) derived from Limulus polyphemus (protein)
chain: SQEPKWKLVWSDEFTNGISSDWEFETGNGPNGWGNNELQYYRRENTRVEGGKLIITAKEEDYEGFRYTSAKLKTQFNKPWKDGKIEARMSIPSFRGVWVAFWMLGDITDTDSWPSSGEIDFEEHINTNNEVRGTIHWSTSDDADTLHGRGTNTDYHIYSVEWNSSVIRWFVDGNQYFDVNIQRGATGTNAFHNNVFVILNMAIGGNWPGFNVADEAFPANMYVDYVRVYQDANTPSPVDVTHLSGYYFLQNRHSELYLDVSGSSNEDGAFLQQWPYSGNANQQFDFVHLGNKVYKIINKNSGKSLDVYELGTDNGVRIQQWSYGGGYNQQFIVQDVGDGYYKIFARSTGKLVEVADLNKDPGGKIQQWSDDGQLSGQWKLIRNKANSKLIQAESYFASSKVQLEDTSDVGGGKNVKCDNEGAWMAYKDINFPSSGTYQVEYRVASERAGGMLSLDLNAGSIVLGMLNVPSTGGLQKWTTISHTVNVSSGTYNLGISVQRPGWNINWINITKVSSQLKSIPSTNSRVIQAESYFDSSKVQLEDTSDVGGGKNVKCDTKGAWMAYKDINFPSSGSYQIEYRVASERAGGKLSLDLNAGSIVLGMLDVPSTGGWQKWTTISHTVKVDSGTYNLGIYVQQPGWNINWIKITKV
In the case of B1, the glucan-dependent protease activity of the coexpressed product: blank difference in absorbance (405 nm / 492 nm) with vs without LNT; grade A >0.1, B <=0.1 and >0.01, C <=0.01 and >0, D =0 (absorbance difference) in assay [1], in assay [2], in assay [3], in assay [4], in assay [5] and in assay [6] was 0 throughout.

B2: Factor G α-subunit B (protein)
chain: TNWKLVWSDEFTNGISSDWEFETGNGPNGWGNNELQYYRRENARVEGGKLIITAKKEDYEGFRYTSAKLKTQFNKPWKDGKIEARMSIPSFRGVWVAFWMLGDITDTDSWPSSGEIDFKEHINTNNEVRGTIHWSTSDGAHTHHGRGTNTDYHIYSVEWNSSVIRWFVDGNQYFEVNIQRGATGTNAFHNKVFVILNMAIGGNWPGFNVADEAFPANMYVDYVRVYQDANTPSPVDVDVTDLSGYYFLQNRHSELYLDVSFSSNKDGAFLQQWPYNGNANQQFDFVHLGNNIYKITNKNSGKSLDVYNVGTENGVRIQQMPYRGSYNQQFIVQDVGDGYYKIFARNSRKLVEVADFNKDPGGKIQQWSDDGQISGQWKLIRNKVNSKVIQAESYFASLGVQLEDTSDVGGGKNVKCDTEGAWMAYKDINFPSSGSYQVEYRVASERAGGKLSLDLNAGSIVLGMLNVPSTGGWQKWTTISHTVKVDSGTYNLGIYVQRPRWNINWIKITEAPGQSKPIQRSDTDSKVIQAESYFASSKVQLEDTSDVGGGKNVKCDNEGAWMAYKDINFPSSGSYQIEYRVASERAGGKLSLDLNAGSIVLGMLDVPSTGGWQKWTTISHTVNVSSGTYNLGIYVQRAAWNINWIKITKV
For B2, the glucan-dependent protease activity of the coexpressed product: blank difference in absorbance (405 nm / 492 nm) with vs without LNT; grade A >0.1, B <=0.1 and >0.01, C <=0.01 and >0, D =0 (absorbance difference) in assay [1] was 0.1; in assay [2], 0; in assay [3], 0; in assay [4] it was 0; in assay [5], less than 0.1; in assay [6], less than 0.01.

B3: Factor G α-subunit A (protein)
chain: EPKWKLVWSDEFTNGISSDWEFETGNGPNGWGNNELQYYRRENTRVEGGKLIITAKEEDYEGFRYTSAKLKTQFNKPWKDGKIEARMSIPSFRGVWVAFWMLGDITDTDSWPSSGEIDFEEHINTNNEVRGTIHWSTSDDADTLHGRGTNTDYHIYSVEWNSSVIRWFVDGNQYFEVNIQRGATGTNAFHNNVFVILNMAIGGNWPGFNVADEAFPANMYVDYVRVYQDANTPSPVDVTHLSGYYFLQNRHSELYLDVSGSSNEDGAFLQQWPYSGNANQQFDFVHLGNKVYKIINKNSGKSLDVYELGTDNGVRIQQWSYGGGYNQQFIVQDVGDGYYKIFARSTGKLVEVADLNKDPGGKIQQWSDDGQLSGQWKLIRNKANSKLIQAESYFASSKVQLEDTSDVGGGKNVKCDNEGAWMAYKDINFPSSGTYQVEYRVASERAGGMLSLDLNAGSIVLGMLNVPSTGGLQKWTTISHTVNVSSGTYNLGISVQRPGWNINWINITKVSSQLKSIPSTNSRVIQAESYFDSSKVQLEDTSDVGGGKNVKCDTKGAWMAYKDINFPSSGSYQIEYRVASERAGGKLSLDLNAGSIVLGMLDVPSTGGWQKWTTISHTVKVDSGTYNLGIYVQQPGWNINWIKITKV
On to B3, for which the glucan-dependent protease activity of the coexpressed product: blank difference in absorbance (405 nm / 492 nm) with vs without LNT; grade A >0.1, B <=0.1 and >0.01, C <=0.01 and >0, D =0 (absorbance difference) in assay [1] was less than 0.01; in assay [2], 0.1; in assay [3], less than 0.1; in assay [4], less than 0.1; in assay [5], less than 0.01; in assay [6], 0.1.

B4: Tachypleus Factor G α-subunit (protein)
chain: SHEPKWQLVWSDEFTNGISSDWEFEMGNGLNGWGNNELQYYRRENAQVEGGKLVITAKREDYDGFKYTSARLKTQFDKSWKYGKIEAKMAIPSFRGVWVMFWMSGDNTNYVRWPSSGEIDFIEHRNTNNEKVRGTIHWSTPDGAHAHHNRESNTNGIDYHIYSVEWNSSIVKWFVNGNQYFEVKIQGGVNGKSAFRNKVFVILNMAIGGNWPGFDVADEAFPAKMYIDYVRVYQDASTSSPVGDTSLDGYYFVQNRHSELYLDVTDASNEDGAFLQQWSYSGNENQQFDFEHLENNVYKITNKKSGKSLDVYNFGTENGVRIQQWSYGGARNQQFTVQSVGDGYYKIIPRGSGKLVEVADFSKDAGGKIQQWSDNNQLSGQWKLIKSKSYSKLIQAESYFDSSKVQLEDTSDVGGGKNVKCDNEGAWMAYKDIDFPSSGNYRIEYRVASERAGGKLSLDLNAGSIVLGMLDVPSTGGWQKWTTISHTVNVDSGTYNLGIYVQRASWNINWIKITKIPEQSNLNQGRRNSKLIQAESYFSYSEVQLEDTLDVGGGKNVKCDKEGAWMAYKDIDFPSSGSYRVEYRVASERAGGKLSLDLNAGSIVLGMLDIPSTGGLQKWTTISHIVNVDLGTYNLGIYVQKASWNINWIRITKV
B4 showed a glucan-dependent protease activity of the coexpressed product: blank difference in absorbance (405 nm / 492 nm) with vs without LNT; grade D = blank difference equal to 0 (legend given for Table 13) (absorbance difference) in assay [7] of 0.
